Results on 1 molecule are retold here after paper PMC9801259.

For the data set, the target named is OGG1 (UniProt O15527 1-345). The data set can be described thus: EMSA.
Sequence of OGG1 (O15527 whole entry): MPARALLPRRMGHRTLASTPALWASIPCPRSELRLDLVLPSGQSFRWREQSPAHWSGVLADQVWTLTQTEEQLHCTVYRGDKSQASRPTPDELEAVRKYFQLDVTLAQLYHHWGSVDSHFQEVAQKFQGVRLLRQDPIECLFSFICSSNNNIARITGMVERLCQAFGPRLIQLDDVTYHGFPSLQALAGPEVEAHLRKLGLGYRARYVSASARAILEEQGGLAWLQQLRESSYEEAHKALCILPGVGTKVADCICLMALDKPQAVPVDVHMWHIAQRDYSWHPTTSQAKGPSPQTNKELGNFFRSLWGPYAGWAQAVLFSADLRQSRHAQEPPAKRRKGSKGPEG

B1: 8-oxo(d)Gua and NF-kB motif probe (Cxcl2 promoter) (dsDNA)
DNA 1: TTCCCTGGTCCCCGGGCTTTTCCAGACATCG
DNA 2: CGATGTCTGGAAAAGCCCGGGGACCAGGGAA
modifications: 8-oxo-dG in antisense strand, printed CCAG*GGAA (G after the asterisk, position 28)
As for B1, the binding result is listed as “binds”.
